B1: SecYEG translocon (SecY C329S, C385S; His-tagged SecE; SecG) (complex)
chain 1: MAKQPGLDFQSAKGGLGELKRRLLFVIGALIVFRIGSFIPIPGIDAAVLAKLLEQQRGTIIEMFNMFSGGALSRASIFALGIMPYISASIIIQLLTVVHPTLAEIKKEGESGRRKISQYTRYGTLVLAIFQSIGIATGLPNMPGMQGLVINPGFAFYFTAVVSLVTGTMFLMWLGEQITERGIGNGISIIIFAGIVAGLPPAIAHTIEQARQGDLHFLVLLLVAVLVFAVTFFVVFVERGQRRIVVNYAKRQQGRRVYAAQSTHLPLKVNMAGVIPAIFASSIILFPATIASWFGGGTGWNWLTTISLYLQPGQPLYVLLYASAIIFFSFFYTALVFNPRETADNLKKSGAFVPGIRPGEQTAKYIDKVMTRLTLVGALYITFISLIPEFMRDAMKVPFYFGGTSLLIVVVVIMDFMAQVQTLMMSSQYESALKKANLKGYGR
chain 2: MSANTEAQGSGRGLEAMKWVVVVALLLVAIVGNYLYRDIMLPLRALAVVILIAAAGGVALLTTKGKATVAFAREARTEVRKVIWPTRQETLHTTLIVAAVTAVMSLILWGLDGILVRLVSFITGLRF
chain 3: MYEALLVVFLIVAIGLVGLIMLQQGKGADMGASFGAGASATLFGSSGSGNFMTRMTALLATLFFIISLVLGNINSNKTNKGSEWENLSAPAKTEQTQPAAPAKPTSDIPN
B2: SecAC4Q801C, cross-linked dimeric species (SecA C98S, C885S, C887S, C896S, Q801C) (enzyme)
chain: MLIKLLTKVFGSRNDRTLRRMRKVVNIINAMEPEMEKLSDEELKGKTAEFRARLEKGEVLENLIPEAFAVVREASKRVFGMRHFDVQLLGGMVLNERSIAEMRTGEGKTLTATLPAYLNALTGKGVHVVTVNDYLAQRDAENNRPLFEFLGLTVGINLPGMPAPAKREAYAADITYGTNNEYGFDYLRDNMAFSPEERVQRKLHYALVDEVDSILIDEARTPLIISGPAEDSSEMYKRVNKIIPHLIRQEKEDSETFQGEGHFSVDEKSRQVNLTERGLVLIEELLVKEGIMDEGESLYSPANIMLMHHVTAALRAHALFTRDVDYIVKDGEVIIVDEHTGRTMQGRRWSDGLHQAVEAKEGVQIQNENQTLASITFQNYFRLYEKLAGMTGTADTEAFEFSSIYKLDTVVVPTNRPMIRKDLPDLVYMTEAEKIQAIIEDIKERTAKGQPVLVGTISIEKSELVSNELTKAGIKHNVLNAKFHANEAAIVAQAGYPAAVTIATNMAGRGTDIVLGGSWQAEVAALENPTAEQIEKIKADWQVRHDAVLEAGGLHIIGTERHESRRIDNQLRGRSGRQGDAGSSRFYLSMEDALMRIFASDRVSGMMRKLGMKPGEAIEHPWVTKAIANAQRKVESRNFDIRKQLLEYDDVANDQRRAIYSQRNELLDVSDVSETINSIREDVFKATIDAYIPPQSLEEMWDIPGLQERLKNDFDLDLPIAEWLDKEPELHEETLRERILAQSIEVYQRKEEVVGAEMMRHFEKGVMLQTLDSLWKEHLAAMDYLRQGIHLRGYAQKDPKCEYKRESFSMFAAMLESLKYEVISTLSKVQVRMPEEVEELEQQRRMEAERLAQMQQLSHQDDDSAAAAALAAQTGERKVGRNDPSPSGSGKKYKQSHGRLQ
modifications: cross-linked dimer (so in the source); the chemistry of the cross-link is not told

Columns and labels:
SecA (wild type) = SecA (wild type) (E. coli, UniProt P10408 1-901); assay: atomic force microscopy
atomic force microscopy = molecular target: the molecule itself; assay: atomic force microscopy

| Binder | binding result (SecA (wild type)) | binding result (atomic force microscopy) |
| --- | --- | --- |
| B1 | binds | – |
| B2 | – | binds |
